Results: patent publication US20260242735A1 (UNIVERSIT T BASEL, published 2026)
Blank lines part the entries; values can stand above or below the binder they belong to.

Legend:
Assay in all cases: alanine scan, flow cytometry, HEK293-T;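 also: antibody binding to each alanine-substituted CD33 mutant expressed transiently in HEK293-T, read as fluorescence minus background, mean of duplicates, relative to wild-type CD33 set as 100%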
human CD33 T232A = human CD33 T232A (human, UniProt P20138 18-364)
human CD33 H193A = human CD33 H193A (human, UniProt P20138 18-364)
human CD33 A219S = human CD33 A219S (human, UniProt P20138 18-364)
human CD33 T239A = human CD33 T239A (human, UniProt P20138 18-364)
human CD33 C169A = human CD33 C169A (human, UniProt P20138 18-364)
human CD33 P189A = human CD33 P189A (human, UniProt P20138 18-364)
human CD33 A168S = human CD33 A168S (human, UniProt P20138 18-364)
human CD33 P203A = human CD33 P203A (human, UniProt P20138 18-364)
human CD33 P175A = human CD33 P175A (human, UniProt P20138 18-364)
human CD33 G218A = human CD33 G218A (human, UniProt P20138 18-364)
human CD33 H206A = human CD33 H206A (human, UniProt P20138 18-364)
human CD33 S181A = human CD33 S181A (human, UniProt P20138 18-364)
human CD33 T226A = human CD33 T226A (human, UniProt P20138 18-364)
human CD33 R225A = human CD33 R225A (human, UniProt P20138 18-364)
human CD33 R190A = human CD33 R190A (human, UniProt P20138 18-364)
human CD33 L197A = human CD33 L197A (human, UniProt P20138 18-364)
human CD33 G207A = human CD33 G207A (human, UniProt P20138 18-364)
human CD33 V231A = human CD33 V231A (human, UniProt P20138 18-364)
human CD33 I176A = human CD33 I176A (human, UniProt P20138 18-364)
human CD33 V221A = human CD33 V221A (human, UniProt P20138 18-364)
human CD33 Q236A = human CD33 Q236A (human, UniProt P20138 18-364)
human CD33 I227A = human CD33 I227A (human, UniProt P20138 18-364)
human CD33 P238A = human CD33 P238A (human, UniProt P20138 18-364)
Sequence of human CD33 P238A (P20138 18-364 P238A limits assumed): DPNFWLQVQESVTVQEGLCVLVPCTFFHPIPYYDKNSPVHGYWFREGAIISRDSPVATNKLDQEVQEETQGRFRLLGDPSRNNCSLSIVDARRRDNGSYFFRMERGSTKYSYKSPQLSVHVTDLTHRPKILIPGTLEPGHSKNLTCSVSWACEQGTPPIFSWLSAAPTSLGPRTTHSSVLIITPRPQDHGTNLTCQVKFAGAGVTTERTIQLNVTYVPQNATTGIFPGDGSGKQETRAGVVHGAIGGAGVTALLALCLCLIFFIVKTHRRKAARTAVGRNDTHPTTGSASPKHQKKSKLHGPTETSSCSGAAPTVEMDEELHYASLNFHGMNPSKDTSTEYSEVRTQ

Sequence of human CD33 R190A (P20138 18-364 R190A limits assumed): as the sequence (P20138 18-364 P238A limits assumed) above, with R173A, A221P counted along it
Sequence of human CD33 C169A (P20138 18-364 C169A limits assumed): as the sequence (P20138 18-364 P238A limits assumed) above, with C152A, A221P counted along it
Sequence of human CD33 A168S (P20138 18-364 A168S limits assumed): as the sequence (P20138 18-364 P238A limits assumed) above, with A151S, A221P counted along it
Sequence of human CD33 H206A (P20138 18-364 H206A limits assumed): as the sequence (P20138 18-364 P238A limits assumed) above, with H189A, A221P counted along it
Sequence of human CD33 T226A (P20138 18-364 T226A limits assumed): as the sequence (P20138 18-364 P238A limits assumed) above, with T209A, A221P counted along it
Sequence of human CD33 P189A (P20138 18-364 P189A limits assumed): as the sequence (P20138 18-364 P238A limits assumed) above, with P172A, A221P counted along it
Sequence of human CD33 L197A (P20138 18-364 L197A limits assumed): as the sequence (P20138 18-364 P238A limits assumed) above, with L180A, A221P counted along it
Sequence of human CD33 T239A (P20138 18-364 T239A limits assumed): as the sequence (P20138 18-364 P238A limits assumed) above, with A221P, T222A counted along it
Sequence of human CD33 V231A (P20138 18-364 V231A limits assumed): as the sequence (P20138 18-364 P238A limits assumed) above, with V214A, A221P counted along it
Sequence of human CD33 I176A (P20138 18-364 I176A limits assumed): as the sequence (P20138 18-364 P238A limits assumed) above, with I159A, A221P counted along it
Sequence of human CD33 P175A (P20138 18-364 P175A limits assumed): as the sequence (P20138 18-364 P238A limits assumed) above, with P158A, A221P counted along it
Sequence of human CD33 T232A (P20138 18-364 T232A limits assumed): as the sequence (P20138 18-364 P238A limits assumed) above, with T215A, A221P counted along it
Sequence of human CD33 G207A (P20138 18-364 G207A limits assumed): as the sequence (P20138 18-364 P238A limits assumed) above, with G190A, A221P counted along it
Sequence of human CD33 A219S (P20138 18-364 A219S limits assumed): as the sequence (P20138 18-364 P238A limits assumed) above, with A202S, A221P counted along it
Sequence of human CD33 S181A (P20138 18-364 S181A limits assumed): as the sequence (P20138 18-364 P238A limits assumed) above, with S164A, A221P counted along it
Sequence of human CD33 P203A (P20138 18-364 P203A limits assumed): as the sequence (P20138 18-364 P238A limits assumed) above, with P186A, A221P counted along it
Sequence of human CD33 G218A (P20138 18-364 G218A limits assumed): as the sequence (P20138 18-364 P238A limits assumed) above, with G201A, A221P counted along it
Sequence of human CD33 I227A (P20138 18-364 I227A limits assumed): as the sequence (P20138 18-364 P238A limits assumed) above, with I210A, A221P counted along it
Sequence of human CD33 H193A (P20138 18-364 H193A limits assumed): as the sequence (P20138 18-364 P238A limits assumed) above, with H176A, A221P counted along it
Sequence of human CD33 V221A (P20138 18-364 V221A limits assumed): as the sequence (P20138 18-364 P238A limits assumed) above, with V204A, A221P counted along it
Sequence of human CD33 Q236A (P20138 18-364 Q236A limits assumed): as the sequence (P20138 18-364 P238A limits assumed) above, with Q219A, A221P counted along it
Sequence of human CD33 R225A (P20138 18-364 R225A limits assumed): as the sequence (P20138 18-364 P238A limits assumed) above, with R208A, A221P counted along it

Mean % WT Binding (human CD33 T232A): 127%
Mean % WT Binding (human CD33 H193A): 92%
Mean % WT Binding (human CD33 A219S): 113%
Mean % WT Binding (human CD33 T239A): 105%
Mean % WT Binding (human CD33 C169A): 115%
Mean % WT Binding (human CD33 P189A): 95.5%
Mean % WT Binding (human CD33 A168S): 99.2%
Mean % WT Binding (human CD33 P203A): 105%
Mean % WT Binding (human CD33 P175A): 106%
Mean % WT Binding (human CD33 G218A): 143%
Mean % WT Binding (human CD33 H206A): 97.3%
Mean % WT Binding (human CD33 S181A): 128%
Mean % WT Binding (human CD33 T226A): 100%
Mean % WT Binding (human CD33 R225A): 98.9%
Mean % WT Binding (human CD33 R190A): 124%
Mean % WT Binding (human CD33 L197A): 91.4%
Mean % WT Binding (human CD33 G207A): 105%
Mean % WT Binding (human CD33 V231A): 153%
Mean % WT Binding (human CD33 I176A): 100%
Mean % WT Binding (human CD33 V221A): 89%
Mean % WT Binding (human CD33 Q236A): 104%
Mean % WT Binding (human CD33 I227A): 127%
Mean % WT Binding (human CD33 P238A): 122%
B1: Refmab #3 (antibody, V domains shown)
VH: QVQLVQSGAEVKKPGSSVKVSCKASGYTFTDYNMHWVRQAPGQGLEWIGYIYPYNGGTGYNQKFKSKATITADESTNTAYMELSSLRSEDTAVYYCARGRPAMDYWGQGTLVTVSS
VL: DIQMTQSPSSLSASVGDRVTITCRASESVDNYGISFMNWFQQKPGKAPKLLIYAASNQGSGVPSRFSGSGSGTDFTLTISSLQPDDFATYYCQQSKEVPWTFGQGTKVEIK
notes: In the alanine scan antibodies were used as IgG or Fab

Mean % WT Binding (human CD33 T232A): 84.8%
Mean % WT Binding (human CD33 H193A): 122%
Mean % WT Binding (human CD33 A219S): 117%
Mean % WT Binding (human CD33 T239A): 111%
Mean % WT Binding (human CD33 C169A): 106%
Mean % WT Binding (human CD33 P189A): 116%
Mean % WT Binding (human CD33 A168S): 110%
Mean % WT Binding (human CD33 P203A): 109%
Mean % WT Binding (human CD33 P175A): 103%
Mean % WT Binding (human CD33 G218A): 124%
Mean % WT Binding (human CD33 H206A): 110%
Mean % WT Binding (human CD33 S181A): 116%
Mean % WT Binding (human CD33 T226A): 112%
Mean % WT Binding (human CD33 R225A): 123%
Mean % WT Binding (human CD33 R190A): 114%
Mean % WT Binding (human CD33 L197A): 125%
Mean % WT Binding (human CD33 G207A): 109%
Mean % WT Binding (human CD33 V231A): 112%
Mean % WT Binding (human CD33 I176A): 124%
Mean % WT Binding (human CD33 V221A): 92.3%
Mean % WT Binding (human CD33 Q236A): 111%
Mean % WT Binding (human CD33 I227A): 110%
Mean % WT Binding (human CD33 P238A): 119%
B2: Refmab #2 (antibody, V domains shown)
VH: QVQLVQSGAEVKKPGSSVKVSCKASGGTFSDYAISWVRQAPGQGLEWMGRIIPILGVADYAQKFQGRVTITADKSTRTAYMELSSLRSEDTAVYYCARNWADAFDIWGQGTMVTVSS
VL: DIQLTQSPSSLSASVGDRVTITCRASQGISSVLAWYQQKPGKAPKLLIYDASSLESGVPSRFSGSGSGTDFTLTISSLQPEDFATYYCQQFDSSITFGQGTKLEIK
notes: as for B1
